Assays:
[1] = system: MS2 coat protein; assay: apparent KD of MS2 coat protein, switch ON state; designed switch direction (-1 OFF switch, 1 ON switch): -1; higher = weaker reporter binding; details: FMN input: 0 or 200 uM; Eterna round: R93 (includes R88 designs)
Summary of the method: (§1)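 Each design's apparent KD comes from the median of binding-curve fits to its normalised clusters. Those clusters carried RNA switches transcribed on-chip from Illumina sequencing clusters. SNAP-549-labelled MS2 coat protein was titrated onto them in twofold steps (0.7 or 1.5 nM to 3 µM; per step 0.8–1.5 h down to 10–20 min). Conditions were 100 mM Tris-HCl pH 7.5, 80 mM KCl, 4 mM MgCl2, without or with constant ligand.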

[2] = system: MS2 coat protein; assay: apparent KD of MS2 coat protein, switch OFF state (with FMN for OFF switches, without FMN for ON switches); designed switch direction (-1 OFF switch, 1 ON switch): -1; higher = weaker reporter binding; details: FMN input: 0 or 200 uM; Eterna round: R93 (includes R88 designs)
Summary of the method: as §1

Sequence: AACAUACAUGAGGAUCACCCAUGUCAGGAUAUGCCGGGUUAGAGCCAACUGAAAAACCGUAGAAGGGACGAAAA [Bilbo Confounded 8 - Jieux - Exclusion 1]
- apparent KD of MS2 coat protein [1]: 66.9 nM
- apparent KD of MS2 coat protein [2]: 79.5 nM

Sequence: AACAUGUAAGGAUAUGCUGCUCGUCACAAAAGUGAUGAGUAGCAGAAGGUACAUGAGGAUCACCCAUGUAAAGA [JL eternac mod 14]
- apparent KD of MS2 coat protein [1]: 50.6 nM
- apparent KD of MS2 coat protein [2]: 111 nM

Sequence: AACAUGUCAGGAUAUGCAAAAGGAGACUGACACGCGAGUGAGCAGAAGGGACAUGAGGAUCACCCAUGUUCAAA [Mat - Mod of Meechl]
- apparent KD of MS2 coat protein [1]: 20.9 nM
- apparent KD of MS2 coat protein [2]: 15.6 nM

Sequence: AACAUGUCAGGAUAUGUAGCAAAAGGUGAUCAAAAAAAGCUACAGAAGGGACAUGAGGAUCACCCAUGUAAAAA [Ex4: 934]
- apparent KD of MS2 coat protein [1]: 126 nM
- apparent KD of MS2 coat protein [2]: 37.1 nM

Sequence: AACAUGUCAGGAUAUGUAGCAUGAUACGAAAGUAUCAUGCUACAGAAGGGACAUGAGGAUCACCCAUGUGAUCA [Ex4: 940]
- apparent KD of MS2 coat protein [1]: 26.7 nM
- apparent KD of MS2 coat protein [2]: 22 nM

Sequence: AACAUGUCAGGAUAUGUGGAAAGAAUAAAAGAAAUAAGAACACAGAAGGGACAUGAGGAUCACCCAUGUCAACA [May 31]
- apparent KD of MS2 coat protein [1]: 27.7 nM
- apparent KD of MS2 coat protein [2]: 25.7 nM

Sequence: AACUGACAUGAGGAUCACCCAUGUCAGGAUAUGCAUCUUAGGAAAAAAAAACUAAGAUGCAGAAGGGACAUGGA [Design 4: Super Stable 4]
- apparent KD of MS2 coat protein [1]: 23.9 nM
- apparent KD of MS2 coat protein [2]: 46.2 nM

Sequence: AACUGACAUGAGGAUCACCCAUGUCAGGAUAUGCUUCAUAAAAUAAAAAUAAAAUGAUGCAGAAGGGACAUGAA [Design 27 :P Sub-opt 3]
- apparent KD of MS2 coat protein [1]: 15.4 nM
- apparent KD of MS2 coat protein [2]: 13.5 nM

Sequence: AACUGGGCAGGAUAUACAUGAGGAUCACCCAUGUAAAGAAAAGAAAGAUCCGAAGAAAGUAGAAGGGCCUGGAA [Variant 3 of Mod 1 of Ex3 sub 3, by Tesla's Dusciple Round 1]
- apparent KD of MS2 coat protein [1]: 98 nM
- apparent KD of MS2 coat protein [2]: 126 nM

Sequence: AAGAAACAUGAGGAUCACCCAUGUGAGGAUAUCUAAAAGAAAAGAAAAGAAAGAAGAAAGAGAAGGCACAAAGG [Setut]
- apparent KD of MS2 coat protein [1]: 34.7 nM
- apparent KD of MS2 coat protein [2]: 64.1 nM

Sequence: AAGAACCUAGGAUAUACAUGAGGAUCACCCAUGUAAAAGAAAGAAAGGGAAAAGAAAAGUAGAAGGAGGAAGAA [Heqakheperre Shoshenq II]
- apparent KD of MS2 coat protein [1]: 12.1 nM
- apparent KD of MS2 coat protein [2]: 15.7 nM

Sequence: AAGAACGGAGGAUAUACAAAAUAAAAGAAAAGAAAGAAAGAACAUGAGGAUCACCCAUGUAGAAGGCCGAAGAA [Sehetepibre Sewesekhtawy]
- apparent KD of MS2 coat protein [1]: 20.9 nM
- apparent KD of MS2 coat protein [2]: 29 nM

Sequence: AAGAACUCAGGAUAUACAUGAGGAUCACCCAUGUAAAAGAAAGAGGGAAAAGAGAAAAGUAGAAGGGAGAAGAA [Ptolemy IV Philopator]
- apparent KD of MS2 coat protein [1]: 14 nM
- apparent KD of MS2 coat protein [2]: 46.9 nM

Sequence: AAGAACUGAGGAUAUACAUGAAAGAAAGAAAAGAAAAGAAAACAUGAGGAUCACCCAUGUAGAAGGCAGAAGAA [EteRNA is fun!]
- apparent KD of MS2 coat protein [1]: 16.9 nM
- apparent KD of MS2 coat protein [2]: 14.4 nM

Sequence: AAGAAGAAAGGAUAUACAAGGAAGAAAGAAAAGAAAAGAAAACAUGAGGAUCACCCAUGUAGAAGGUUCUAGAA [EteRNA is fun!]
- apparent KD of MS2 coat protein [1]: 15.2 nM
- apparent KD of MS2 coat protein [2]: 9.5 nM

Sequence: AAGAAGACAGGAUAUACAUGAGGAUCACCCAUGUAAAAGAAAGAAGGGAAAGAGAAAAGUAGAAGGGUCAAGAA [Menkheperre Ini]
- apparent KD of MS2 coat protein [1]: 23.6 nM
- apparent KD of MS2 coat protein [2]: 25.3 nM

Sequence: AAGAAGCAAGGAUAUACAUGAAAGAAAGAAAAGAAAAGAAAACAUGAGGAUCACCCAUGUAGAAGGUGCUAGAA [EteRNA is fun!]
- apparent KD of MS2 coat protein [1]: 34.6 nM
- apparent KD of MS2 coat protein [2]: 47.8 nM

Sequence: AAGAAGCAAGGAUAUACAUGAGGAUCACCCAUGUAAAAGAAAGAAAAGGGAAAGAAAAGUAGAAGGUGCAAAGA [Ruby 69]
- apparent KD of MS2 coat protein [1]: 43.6 nM
- apparent KD of MS2 coat protein [2]: 72.8 nM

Sequence: AAGAAGCGAGGAUAUACAAAAUAAAAGAAAAGAAAGAAAGAACAUGAGGAUCACCCAUGUAGAAGGCGUAAGAA [Sankhenre Sewadjtu]
- apparent KD of MS2 coat protein [1]: 13.3 nM
- apparent KD of MS2 coat protein [2]: 11.1 nM

Sequence: AAGAAGUCAGGAUAUACAUGAGGAUCACCCAUGUAAAAGAAAGAGGGAAAAGAGAAAAGUAGAAGGGACAAGAA [Arsinoe I]
- apparent KD of MS2 coat protein [1]: 29.1 nM
- apparent KD of MS2 coat protein [2]: 32.1 nM

Sequence: AAGAAGUCAGGAUAUGCCAGAGAUCAAGAAAGUGACGAGUAGCAGAAGGGACAUGAGGAUCACCCAUGUAAAGA [Opal 8]
- apparent KD of MS2 coat protein [1]: 45.9 nM
- apparent KD of MS2 coat protein [2]: 36.9 nM

Sequence: AAGAAGUCAGGAUAUGCUGCUCGUCACAAAAGUGAUGAGUAGCAGAAGGGACAUGAGGAUCACCCAUGUAAAGA [JL eternac mod 0]
- apparent KD of MS2 coat protein [1]: 52 nM
- apparent KD of MS2 coat protein [2]: 67.5 nM

Sequence: AAGAAGUCAGGAUAUGCUUGUCGUCACAAAAGUGAUGACGAGCAGAAGGGACAUGAGGAUCACCCAUGUAAAGA [JL eternac mod 1]
- apparent KD of MS2 coat protein [1]: 42.1 nM
- apparent KD of MS2 coat protein [2]: 41.9 nM

Sequence: AAGAAGUGAGGAUAUCCAAAAGAAAAGAAAAGAAAAGAAAAGGAGAAGGCACAUGAGGAUCACCCAUGUAAGAA [Ankhkaenre Psamtik III]
- apparent KD of MS2 coat protein [1]: 26.3 nM
- apparent KD of MS2 coat protein [2]: 28.4 nM

Sequence: AAGAAUGAAGGAUAUACAUGAGGAUCACCCAUGUAAAAGAAAGAGGGAAAAGAGAAAAGUAGAAGGUCAAAGAA [Ptolemy XI Alexander II]
- apparent KD of MS2 coat protein [1]: 19.8 nM
- apparent KD of MS2 coat protein [2]: 20.4 nM

Sequence: AAGACUAGAGGAUAUACAUGAGGAUCACCCAUGUAACUGUCAGGAAACUGACGGAGAUGUAGAAGGCUAGUCAA [Mat - Exclusion 3 - Neo mod - D75]
- apparent KD of MS2 coat protein [1]: 16.7 nM
- apparent KD of MS2 coat protein [2]: 38.4 nM

Sequence: AAGAGUAGAGGAUAUACAUGAGGAUCACCCAUGUAAUCCAGAUAAGGAAGCAUGUCGUGUAGAAGGCUGCAUGA [MOD 2 of Nando (MS2 Riboswitches- Exclusion 3)]
- apparent KD of MS2 coat protein [1]: 15.9 nM
- apparent KD of MS2 coat protein [2]: 14.4 nM

Sequence: AAGAUGUGAGGAUAUGCUUGUCGUCACAAAAGUGAUGACGAGCAGAAGGCACAUGAGGAUCACCCAUGUAAAGA [Opal 26]
- apparent KD of MS2 coat protein [1]: 90.1 nM
- apparent KD of MS2 coat protein [2]: 147 nM

Sequence: AAGGGACAUGAGGAUCACCCAUGUGAGGAUAUGACGUAAAGAAAGAAAGAAGAAAUCGUCAGAAGGCACACCAA [Mat - Exclusion 1 - Eli mod - D70]
- apparent KD of MS2 coat protein [1]: 70.6 nM
- apparent KD of MS2 coat protein [2]: 118 nM

Sequence: AAGGUACGAGGAUAUACAUAGAUACAGACACAUGUACAUGUACAUGAGGAUCACCCAUGUAGAAGGCGUAUAUG [Mat - Same state - Mayanna Mod - D109]
- apparent KD of MS2 coat protein [1]: 67.5 nM
- apparent KD of MS2 coat protein [2]: 73.9 nM

Sequence: AAGUACGAAGGAUAUACAUGGAUAUACAUUCAUGUGGACCUACAUGAGGAUCACCCAUGUAGAAGGUCGUAAUA [Mat - Same state - Mayanna Mod - D145]
- apparent KD of MS2 coat protein [1]: 24.6 nM
- apparent KD of MS2 coat protein [2]: 12.8 nM

Sequence: AAGUGGGCAGGAUAUACAUGAGGAUCACCCAUGUAAAGAAAAGAAAGAUCCGAAGAAAGUAGAAGGGCCUGCAA [Mod 1 of Ex3 sub 3, by Tesla's Dusciple Round 1]
- apparent KD of MS2 coat protein [1]: 144 nM
- apparent KD of MS2 coat protein [2]: 137 nM

Sequence: AAUAACAGAGGAUAUGCGAAAAUAAGCGGAAACGCAAAGGGACAUGAGGAUCACCCAUGUAGAAGGCUGGAUAA [Tetraloop... 61% 1]
- apparent KD of MS2 coat protein [1]: 34.4 nM
- apparent KD of MS2 coat protein [2]: 29.5 nM

From the supplement of paper PMC9170038
